Key:
[1] = biological target: T1, native human MET on living cells (human, UniProt P08581 25-1390); test: flow cytometry, A549 cells
T1 construct: whole, on cells; also called Human cells (A549); HPAF-II
Description: (§1) We also analysed whether chimeric anti-MET antibodies bound to native human and mouse MET in living cells. […] Antibody binding to cells was analysed by flow cytometry using phycoerythrin-conjugated anti-human IgG1 antibodies (eBioscience) and a CyAn ADP analyser (Beckman Coulter). As a positive control for human MET binding, we used a commercial mouse anti-human MET antibody (R&D Systems) and phycoerythrin-conjugated anti-mouse IgG1 antibodies (eBioscience).
(§2) As a positive control for mouse MET binding we used a commercial goat anti-mouse MET antibody (R&D Systems) and phycoerythrin-conjugated anti-goat IgG1 antibodies (eBioscience). […] Consistent with the data obtained in ELISA, maximal binding (EMAX) varied depending on antibody, but was similar in human and mouse cells.

[2] = biological target: T2, native mouse MET on living cells (mouse, UniProt P16056 25-1379); test: flow cytometry, MLP29 cells
T2 construct: whole, on cells; also called Mouse cells (MLP29); mouse epithelial cells expressing MET
Description: as §1, §2

[3] = biological target: T3, human MET-Fc (R&D Systems) (human, UniProt P08581 25-932); test: competition ELISA, hMET-Fc in solid phase, competitor 0.3 nM biotinylated hHGF
T3 construct: extracellular domain; bought chimeric protein; also called hMET; not shown: Fc portion of human IgG1
Description: (§3) To investigate along this line, we tested the competition between mAbs and HGF by ELISA. Recombinant human and mouse HGF (R&D Systems) were biotinylated at the N-terminus using NHS-LC-biotin (Thermo Scientific). MET-Fc protein, either human or mouse (R&D Systems), was immobilized in solid phase and then exposed to 0.3 nM biotinylated HGF, either human or mouse, in the presence of increasing concentrations of antibodies (0-120 nM).
(§4) A MET-Fc chimeric protein (either human or mouse) was immobilized in solid phase and exposed to a fixed concentration of biotinylated HGF (either human or mouse), in the presence of increasing concentrations of antibodies. […] Antibody-HGF competition is expressed as IC₅₀ (the concentration that achieves 50% competition) and IMAX (the maximum % competition reached at saturation).

[4] = biological target: T1, native human MET on living cells; test: cell-based or functional assay
[5] = biological target: T2, native mouse MET on living cells; test: cell-based or functional assay
[6] = biological target: T4, mouse MET-Fc (R&D Systems) (mouse, UniProt P16056 25-929, limits assumed); test: competition ELISA, mMET-Fc in solid phase, competitor 0.3 nM biotinylated mHGF
T4 construct: bought chimeric protein; also called mMET; not shown: Fc part
Description: as §3, §4

[7] = biological target: T1, native human MET on living cells; test: cell-based or functional assay; remark: listed apart in the source
[8] = biological target: T2, native mouse MET on living cells; test: cell-based or functional assay; remark: listed apart in the source
[9] = biological target: T5, human MET ECD (human, UniProt P08581 25-932); test: ELISA, MET ECD in solid phase, mAb 0-20 nM
T5 construct: range 1-932; recombinant ECD made by the applicants; the stated range begins at residue 1, so it includes the signal peptide of the entry; also called hMET; hMET ECD
Description: (§5) Production (by transient transfection of mammalian cells) and purification (by protein A affinity chromatography) of the resulting chimeric llama-human IgG1 molecules was outsourced to U-protein Express. Binding of chimeric mAbs to MET was determined by ELISA using hMET or mMET ECD in solid phase and increasing concentrations of antibodies (0-20 nM) in solution. […] Binding capacity (EMAX) varied from antibody to antibody, possibly due to partial epitope exposure in the immobilized antigen, but was similar in the human and mouse setting.

[10] = biological target: T6, mouse MET ECD (mouse, UniProt P16056 25-931); test: ELISA, MET ECD in solid phase, mAb 0-20 nM
T6 construct: range 1-931; recombinant ECD made by the applicants; the stated range begins at residue 1; also called mMET; mMET ECD
Description: as §5

[11] = biological target: T1, native human MET on living cells; test: cell-based or functional assay; remark: listed apart in the source
[12] = biological target: T2, native mouse MET on living cells; test: cell-based or functional assay; remark: listed apart in the source
[13] = biological target: T1, native human MET on living cells; test: cell-based or functional assay; remark: listed apart in the source
[14] = biological target: T2, native mouse MET on living cells; test: cell-based or functional assay; remark: listed apart in the source

T1 sequence (P08581 25-1390): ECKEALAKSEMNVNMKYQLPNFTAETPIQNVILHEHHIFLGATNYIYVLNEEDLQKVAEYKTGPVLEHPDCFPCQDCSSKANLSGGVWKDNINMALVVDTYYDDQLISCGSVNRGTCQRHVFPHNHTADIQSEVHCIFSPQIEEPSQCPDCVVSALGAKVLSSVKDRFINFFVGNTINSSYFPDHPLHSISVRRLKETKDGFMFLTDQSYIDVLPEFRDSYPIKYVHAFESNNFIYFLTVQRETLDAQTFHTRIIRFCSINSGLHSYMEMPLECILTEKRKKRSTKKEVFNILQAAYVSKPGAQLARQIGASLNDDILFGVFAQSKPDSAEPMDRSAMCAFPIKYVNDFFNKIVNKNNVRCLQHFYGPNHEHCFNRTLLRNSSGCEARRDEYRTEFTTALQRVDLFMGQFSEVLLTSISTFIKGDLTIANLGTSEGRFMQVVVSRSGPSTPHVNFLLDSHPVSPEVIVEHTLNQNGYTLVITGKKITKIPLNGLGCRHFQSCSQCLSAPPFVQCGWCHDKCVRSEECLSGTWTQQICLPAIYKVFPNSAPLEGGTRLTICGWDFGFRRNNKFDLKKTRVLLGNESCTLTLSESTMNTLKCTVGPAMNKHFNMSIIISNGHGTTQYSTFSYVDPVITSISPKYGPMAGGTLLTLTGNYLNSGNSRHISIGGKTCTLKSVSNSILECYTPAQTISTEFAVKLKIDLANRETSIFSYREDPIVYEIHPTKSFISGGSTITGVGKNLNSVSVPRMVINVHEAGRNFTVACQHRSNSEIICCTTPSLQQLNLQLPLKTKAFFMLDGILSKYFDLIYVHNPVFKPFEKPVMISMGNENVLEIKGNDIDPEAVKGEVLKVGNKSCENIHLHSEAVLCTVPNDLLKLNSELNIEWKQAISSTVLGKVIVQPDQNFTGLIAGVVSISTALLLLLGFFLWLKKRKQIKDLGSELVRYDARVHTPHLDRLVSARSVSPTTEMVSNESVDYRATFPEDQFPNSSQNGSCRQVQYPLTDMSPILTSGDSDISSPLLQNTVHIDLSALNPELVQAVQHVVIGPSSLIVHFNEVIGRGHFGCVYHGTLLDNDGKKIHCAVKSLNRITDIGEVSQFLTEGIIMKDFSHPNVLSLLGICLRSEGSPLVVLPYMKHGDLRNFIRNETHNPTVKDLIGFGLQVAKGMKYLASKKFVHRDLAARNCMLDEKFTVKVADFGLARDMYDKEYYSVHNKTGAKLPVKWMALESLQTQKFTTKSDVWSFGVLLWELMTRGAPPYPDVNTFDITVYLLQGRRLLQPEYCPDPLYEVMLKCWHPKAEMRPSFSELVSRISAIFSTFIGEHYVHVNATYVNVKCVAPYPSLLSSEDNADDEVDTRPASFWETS
T3 sequence (P08581 25-932): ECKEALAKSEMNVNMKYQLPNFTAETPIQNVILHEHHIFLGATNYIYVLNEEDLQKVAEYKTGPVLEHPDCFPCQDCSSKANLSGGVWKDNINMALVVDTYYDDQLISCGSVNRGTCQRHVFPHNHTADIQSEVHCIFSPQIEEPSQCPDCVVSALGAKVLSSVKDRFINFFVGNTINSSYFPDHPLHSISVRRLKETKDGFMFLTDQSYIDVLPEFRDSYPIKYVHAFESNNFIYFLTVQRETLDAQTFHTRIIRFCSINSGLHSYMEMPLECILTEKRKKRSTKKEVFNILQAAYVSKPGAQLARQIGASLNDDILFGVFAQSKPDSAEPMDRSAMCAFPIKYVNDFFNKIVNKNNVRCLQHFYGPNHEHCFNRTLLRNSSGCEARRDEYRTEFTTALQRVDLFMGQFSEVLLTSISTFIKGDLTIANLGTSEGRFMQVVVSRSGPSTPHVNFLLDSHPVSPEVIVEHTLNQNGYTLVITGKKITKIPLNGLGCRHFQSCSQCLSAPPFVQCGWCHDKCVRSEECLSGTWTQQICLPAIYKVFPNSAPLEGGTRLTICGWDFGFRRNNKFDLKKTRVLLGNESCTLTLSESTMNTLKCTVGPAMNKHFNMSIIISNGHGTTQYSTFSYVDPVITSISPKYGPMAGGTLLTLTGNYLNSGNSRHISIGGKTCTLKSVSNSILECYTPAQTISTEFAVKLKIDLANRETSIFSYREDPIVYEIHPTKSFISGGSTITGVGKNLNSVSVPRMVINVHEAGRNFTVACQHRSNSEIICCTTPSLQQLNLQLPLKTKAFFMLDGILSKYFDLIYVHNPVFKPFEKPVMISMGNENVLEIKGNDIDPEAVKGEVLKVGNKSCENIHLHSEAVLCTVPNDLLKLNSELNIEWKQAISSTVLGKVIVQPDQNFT
T5 sequence (P08581 25-932 limits assumed, form in doubt): as the sequence (P08581 25-932) above

B1: 76G7 chimeric llama-human IgG1 mAb (antibody, V domains shown)
VH: QVQLVESGGNLVQPGGSLRLSCAASGFTFSNYYMSWVRQAPGKGLEWVSDIYSDGSTTWYSDSVKGRFTISRDNAKNTLSLQMNSLKSEDTAVYYCARVKIYPGGYDAWGQGTQVTVSS
VL: QAGLTQPPSVSGSPGKTVTISCAGNSSDVGYGNYVSWYQQFPGMAPKLLIYLVNKRASGITDRFSGSKSGNTASLTISGLQSEDEADYYCASYTGSNNIVFGGGTHLTVL
notes: llama VH on human IgG1 CH1-CH2-CH3, llama VL on human lambda CL
EC50 [1]: 2.3 nM | EMAX [1]: 121 % relative to control | EC50 [2]: 2.37 nM | EMAX [2]: 115 % relative to control | IC50 [3]: 1.47 nM | IMAX [3]: 69.4% | phospho-MET ELISA EC50, A549 cells [4]: 1.86 nM | phospho-MET ELISA EMAX (% HGF activity), A549 cells [4]: 62.3% | phospho-MET ELISA EC50, MLP29 cells [5]: 1.19 nM | phospho-MET ELISA EMAX (% HGF activity), MLP29 cells [5]: 71.5% | IC50 [6]: 1.56 nM | IMAX [6]: 62.5% | scatter score 0-4, HPAF-II, 0.001 nM [7]: 0 score | scatter score 0-4, HPAF-II, 0.004 nM [7]: 0 score | scatter score 0-4, HPAF-II, 0.012 nM [7]: 0 score | scatter score 0-4, HPAF-II, 0.037 nM [7]: 0 score | scatter score 0-4, HPAF-II, 0.111 nM [7]: 0 score | scatter score 0-4, HPAF-II, 0.333 nM [7]: 0 score | scatter score 0-4, HPAF-II, 1.000 nM [7]: 1 score | scatter score 0-4, HPAF-II, 3.000 nM [7]: 2 score | scatter score 0-4, HPAF-II, 9.000 nM [7]: 3 score | scatter score 0-4, MLP29, 0.001 nM [8]: 0 score | scatter score 0-4, MLP29, 0.004 nM [8]: 0 score | scatter score 0-4, MLP29, 0.012 nM [8]: 0 score | scatter score 0-4, MLP29, 0.037 nM [8]: 0 score | scatter score 0-4, MLP29, 0.111 nM [8]: 0 score | scatter score 0-4, MLP29, 0.333 nM [8]: 0 score | scatter score 0-4, MLP29, 1.000 nM [8]: 1 score | scatter score 0-4, MLP29, 3.000 nM [8]: 2 score | scatter score 0-4, MLP29, 9.000 nM [8]: 3 score | EC50 [9]: 0.128 nM | EMAX (OD450) [9]: 2.62 AU | EC50 [10]: 0.103 nM | EMAX (OD450) [10]: 2.78 AU | protection from staurosporine, viability EC50, MCF10A cells [11]: 25.4 nM | protection from staurosporine, viability EMAX, MCF10A cells [11]: 51.9% | protection from staurosporine, viability EC50, MLP29 cells [12]: 30.1 nM | protection from staurosporine, viability EMAX, MLP29 cells [12]: 50.2% | branches per spheroid, LOC cells, 0.5 nM [13]: 6.7 branches | branches per spheroid, LOC cells, 2.5 nM [13]: 13.3 branches | branches per spheroid, LOC cells, 12.5 nM [13]: 16.3 branches | branches per spheroid, MLP29 cells, 0.5 nM [14]: 14.7 branches | branches per spheroid, MLP29 cells, 2.5 nM [14]: 18.7 branches | branches per spheroid, MLP29 cells, 12.5 nM [14]: 24.7 branches

B2: recombinant mouse HGF (R&D Systems) (ligand, UniProt Q08048 33-728, looked up)
chain: QKKRRNTLHEFKKSAKTTLTKEDPLLKIKTKKVNSADECANRCIRNRGFTFTCKAFVFDKSRKRCYWYPFNSMSSGVKKGFGHEFDLYENKDYIRNCIIGKGGSYKGTVSITKSGIKCQPWNSMIPHEHSFLPSSYRGKDLQENYCRNPRGEEGGPWCFTSNPEVRYEVCDIPQCSEVECMTCNGESYRGPMDHTESGKTCQRWDQQTPHRHKFLPERYPDKGFDDNYCRNPDGKPRPWCYTLDPDTPWEYCAIKTCAHSAVNETDVPMETTECIQGQGEGYRGTSNTIWNGIPCQRWDSQYPHKHDITPENFKCKDLRENYCRNPDGAESPWCFTTDPNIRVGYCSQIPKCDVSSGQDCYRGNGKNYMGNLSKTRSGLTCSMWDKNMEDLHRHIFWEPDASKLNKNYCRNPDDDAHGPWCYTGNPLIPWDYCPISRCEGDTTPTIVNLDHPVISCAKTKQLRVVNGIPTQTTVGWMVSLKYRNKHICGGSLIKESWVLTARQCFPARNKDLKDYEAWLGIHDVHERGEEKRKQILNISQLVYGPEGSDLVLLKLARPAILDNFVSTIDLPSYGCTIPEKTTCSIYGWGYTGLINADGLLRVAHLYIMGNEKCSQHHQGKVTLNESELCAGAEKIGSGPCEGDYGGPLICEQHKMRMVLGVIVPGRGCAIPNRPGIFVRVAYYAKWIHKVILTYKL
modifications: biotinylated at the N-terminus using NHS-LC-biotin (in the competition ELISAs only)
phospho-MET ELISA EC50, MLP29 cells [5]: 0.23 nM | phospho-MET ELISA EMAX (% HGF activity), MLP29 cells [5]: 100% | scatter score 0-4, MLP29, 0.001 nM [8]: 0 score | scatter score 0-4, MLP29, 0.004 nM [8]: 1 score | scatter score 0-4, MLP29, 0.012 nM [8]: 2 score | scatter score 0-4, MLP29, 0.037 nM [8]: 3 score | scatter score 0-4, MLP29, 0.111 nM [8]: 4 score | scatter score 0-4, MLP29, 0.333 nM [8]: 4 score | scatter score 0-4, MLP29, 1.000 nM [8]: 4 score | scatter score 0-4, MLP29, 3.000 nM [8]: 4 score | scatter score 0-4, MLP29, 9.000 nM [8]: 4 score | protection from staurosporine, viability EC50, MLP29 cells [12]: 5.35 nM | protection from staurosporine, viability EMAX, MLP29 cells [12]: 58.6% | branches per spheroid, MLP29 cells, 0.5 nM [14]: 32.3 branches | branches per spheroid, MLP29 cells, 2.5 nM [14]: 43.7 branches | branches per spheroid, MLP29 cells, 12.5 nM [14]: 36 branches
